Substrate: [Mg+2]
Experiment: purified protein, by the assay type
Settings: fit to Hill equation

B1: wild-type Ty1 RT (Saccharomyces cerevisiae S288C) (protein)
chain: MESQQLSQHSHISHGSACASVTSKEVHTNQDPLDVSASKTEECEKASTKANSQQTTTPASSAVPENPHHASPQPASVPPPQNGPYPQQCMMTQNQANPSGWSFYGHPSMIPYTPYQMSPMYFPPGPQSQFPQYPSSVGTPLSTPSPESGNTFTDSSSADSDMTSTKKYVRPPPMLTSPNDFPNWVKTYIKFLQNSNLGGIIPTVNGKPVRQITDDELTFLYNTFQIFAPSQFLPTWVKDILSVDYTDIMKILSKSIEKMQSDTQEANDIVTLANLQYNGSTPADAFETKVTNIIDRLNNNGIHINNKVACQLIMRGLSGEYKFLRYTRHRHLNMTVAELFLDIHAIYEEQQGSRNSKPNYRRNLSDEKNDSRSYTNTTKPKVIARNPQKTNNSKSKTARAHNVSTSNNSPSTDNDSISKSTTEPIQLNNKHDLHLGQELTESTVNHTNHSDDELPGHLLLDSGASRTLIRSAHHIHSASSNPDINVVDAQKRNIPINAIGDLQFHFQDNTKTSIKVLHTPNIAYDLLSLNELAAVDITACFTKNVLERSDGTVLAPIVQYGDFYWVSKRYLLPSNISVPTINNVHTSESTRKYPYPFIHRMLAHANAQTIRYSLKNNTITYFNESDVDWSSAIDYQCPDCLIGKSTKHRHIKGSRLKYQNSYEPFQYLHTDIFGPVHNLPKSAPSYFISFTDETTKFRWVYPLHDRREDSILDVFTTILAFIKNQFQASVLVIQMDRGSEYTNRTLHKFLEKNGITPCYTTTADSRAHGVAERLNRTLLDDCRTQLQCSGLPNHLWFSAIEFSTIVRNSLASPKSKKSARQHAGLAGLDISTLLPFGQPVIVNDHNPNSKIHPRGIPGYALHPSRNSYGYIIYLPSLKKTVDTTNYVILQGKESRLDQFNYDALTFDEDLNRLTASYQSFIASNEIQESNDLNIESDHDFQSDIELHPEQPRNVLSKAVSPTDSTPPSTHTEDSKRVSKTNIRAPREVDPNISESNILPSKKRSSTPQISNIESTGSGGMHKLNVPLLAPMSQSNTHESSHASKSKDFRHSDSYSENETNHTNVPISSTGGTNNKTVPQISDQETEKRIIHRSPSIDASPPENNSSHNIVPIKTPTTVSEQNTEESIIADLPLPDLPPESPTEFPDPFKELPPINSHQTNSSLGGIGDSNAYTTINSKKRSLEDNETEIKVSRDTWNTKNMRSLEPPRSKKRIHLIAAVKAVKSIKPIRTTLRYDEAITYNKDIKEKEKYIEAYHKEVNQLLKMKTWDTDEYYDRKEIDPKRVINSMFIFNKKRDGTHKARFVARGDIQHPDTYDTGMQSNTVHHYALMTSLSLALDNNYYITQLDISSAYLYADIKEELYIRPPPHLGMNDKLIRLKKSHYGLKQSGANWYETIKSYLIKQCGMEEVRGWSCVFKNSQVTICLFVDDMILFSKDLNANKKIITTLKKQYDTKIINLGESDNEIQYDILGLEIKYQRGKYMKLGMENSLTEKIPKLNVPLNPKGRKLSAPGQPGLYIDQDELEIDEDEYKEKVHEMQKLIGLASYVGYKFRFDLLYYINTLAQHILFPSRQVLDMTYELIQFMWDTRDKQLIWHKNKPTEPDNKLVAISDASYGNQPYYKSQIGNIFLLNGKVIGGKSTKASLTCTSTTEAEIHAISESVPLLNNLSYLIQELNKKPIIKGLLTDSRSTISIIKSTNEEKFRNRFFGTKAMRLRDEVSGNNLYVYYIETKKNIADVMTKPLPIKTFKLLTNKWIH
**Q.** B1 was tested. Which kcat (other: Wt. Ty1 RT) did it give?
**A.** The kcat was 0.000447 ± 8.89e-05 s⁻¹.

B2: D211N Ty1 RT (Saccharomyces cerevisiae S288C; D1428N) (protein)
chain: AVKAVKSIKPIRTTLRYDEAITYNKDIKEKEKYIEAYHKEVNQLLKMKTWDTDEYYDRKEIDPKRVINSMFIFNKKRDGTHKARFVARGDIQHPDTYDTGMQSNTVHHYALMTSLSLALDNNYYITQLDISSAYLYADIKEELYIRPPPHLGMNDKLIRLKKSHYGLKQSGANWYETIKSYLIKQCGMEEVRGWSCVFKNSQVTICLFVDNMILFSKDLNANKKIITTLKKQYDTKIINLGESDNEIQYDILGLEIKYQRGKYMKLGMENSLTEKIPKLNVPLNPKGRKLSAPGQPGLYIDQDELEIDEDEYKEKVHEMQKLIGLASYVGYKFRFDLLYYINTLAQHILFPSRQVLDMTYELIQFMWDTRDKQLIWHKNKPTEPDNKLVAISDASYGNQPYYKSQIGNIFLLNGKVIGGKSTKASLTCTSTTEAEIHAISESVPLLNNLSYLIQELNKKPIIKGLLTDSRSTISIIKSTNEEKFRNRFFGTKAMRLRDEVSGNNLYVYYIETKKNIADVMTKPLPIKTFKLLTNKWIH
**Q.** With B2 as the protein, how does the kcat (other: D211N Ty1 RT) read?
**A.** The kcat was 0.000444 ± 7.78e-05 s⁻¹.
